Results as given in patent publication US20080064628A1, “Fibrinogen Targetting Microparticles For Promoting Haemostasis” (Haemostatix Limited, priority 2003, published 2008).
Ends that are not written are not given here.

Tests used:
fibrinogen (human) [1] = target: fibrinogen (human) (UniProt P02671); assay: flow cytometry, FITC anti-human fibrinogen; albumin microspheres without peptide, fibrinogen bound directly to the surface
fibrinogen (human) [2] = target: fibrinogen (human) (UniProt P02671); assay: flow cytometry, FITC anti-human fibrinogen; albumin microspheres without peptide, coated directly with 10 mg/ml fibrinogen at pH 6.0
fibrinogen = target: T1, fibrinogen (Homo sapiens, UniProt P02675+P02679); assay: Fibrinogen binding assay: FITC-labelled anti-human fibrinogen antibody, flow cytometry; details: for Percent positive (percentage of microspheres positive for fibrinogen): flow cytometry, FITC rabbit anti-human fibrinogen antibody; for Median fluorescence intensity: measure of the amount of fibrinogen bound to the microspheres
T1 construct: purchased Scottish National Blood Transfusion Service
Procedure: 2. Fibrinogen Binding Assay
(i) 5 μl of a suspension of artificial platelets obtained from step (iv) of method 1 above was added to 50 μl of HEPES buffered saline containing 1 μl of FITC-labelled rabbit antibody to human fibrinogen (DakoCytomation; F0111). The mixture was incubated at 20° C. for 20 minutes. Blank microspheres (without DTNB treatment or peptide) or a cysteine control sample were used as a negative control for these assays.
(ii) After 20 minutes the reaction was stopped by the addition of 0.5 ml saline. After a further 10 minutes, the sample was diluted 1/10 in saline and analysed in a Flow Cytometer (e.g. Coulter XL-MCL Flow Cytometer).
(iii) Data were recorded as the percentage of microspheres positive for fibrinogen and the median fluorescence intensity of the particles. The latter is a measure of the amount of fibrinogen bound to the microspheres and is in arbitrary units (log scale).

thrombin = assay: Response of products to thrombin in platelet-free plasma (light transmission aggregometer); type: biochemical, human; details: increase in light transmission over 20 minutes, mean ± sd of 4 experiments
Procedure: Cross-linking of the agent of the invention via fibrin-fibrin bridging can be tested in a modified aggregation assay, for example, a protocol based on Levi et al, 1999, Nature Medicine, […], 107-111. The method that we used is reported below.
The assay was performed using a light transmission aggregometer (we used a PAP4 aggregometer (BioData Corporation)). […] Aggregation of the microspheres causes an increase in light transmission, which can be recorded as percentage “aggregation” relative to plasma alone.
The microspheres can be counted using a particle counter such as a Flow cytometer (e.g. Beckman Coulter MCL-XL) or Coulter Z2.
(ii) Platelet-free plasma was prepared by centrifuging blood for 30 minutes at 1500× g and collecting the supernatant.
(iii) 350 μl platelet-free plasma was placed in an aggregometer cuvette and 50 μl of blank microspheres were added. […]

platelets [3] = assay: Platelet aggregation in platelet-depleted plasma by counting single platelets in a flow cytometer; type: cell-based, human; details: mean ± sd of 3 experiments; for Percentage aggregation in the absence of ADP: inactive platelets, percentage loss of single CD42b-positive platelets from the gate; for Percentage aggregation in the presence of ADP: platelets activated with sub-optimal ADP, percentage loss of single CD42b-positive platelets
Procedure: 3.2 Preparation of Platelet-Depleted Plasma
(i) Two tubes of blood were collected into tri-sodium citrate anticoagulant, by clean venepuncture via a 21 gauge butterfly needle. The blood was processed within 10 minutes of collection, to minimise platelet activation in vitro.
(ii) One tube of blood was centrifuged at 150× g for 20 minutes at 20° C. to prepare platelet rich plasma (PRP).
(iii) A second tube of blood was centrifuged at 1500× g for 30 minutes at 20° C. to prepare platelet poor plasma (PPP).
(iv) The PRP was removed from the blood cell fraction and mixed with the PPP to achieve a platelet count of between 10 and 50×10^6 platelets/ml.
4.1 Method for Measuring Aggregation by Counting in a Flow Cytometer
Flow cytometry can be used to count the number of residual single platelets, and thereby to calculate the percentage of platelets that have bound to artificial platelets. The sample is analysed by the forward and side scatter and an electronic gate is set around the population of single platelets. To do this a sample of platelet-rich plasma is used that contains EDTA to prevent platelet-platelet aggregation occurring. The platelets are labelled with a fluorescently-conjugated antibody such as a CD42b monoclonal that binds to the GPIb receptor on all platelets.
As aggregation occurs the number of platelets within the gate declines. The artificial platelets should not induce aggregation of non-activated (“resting”) platelets. If, however, the platelets are activated, for example by ADP they should aggregate with the artificial platelets. In this assay a sub-optimal concentration of ADP is used to distinguish the effects of the artificial platelets in platelet-deficient plasma.
(i) To set the platelet gate, whole blood that had been collected into EDTA was used. 5 μl of EDTA anticoagulated blood was added to 50 μl Hepes-buffered saline and analysed by forward and side scatter in a flow cytometer (e.g. Beckman Coulter MCL-XL). A gate was set around the platelet population so that>98% of the single platelets are contained within the platelet gate.
(ii) 400 μL of platelet-depleted plasma, with a platelet count of 10-60×10^6/ml, was mixed with 20 μL of control microspheres (blank capsules as disclosed in Example 1, Method 1 (i)) at 10 mg albumin/ml and ADP was added at final concentrations of between 1 and 4×10^−5 M. The sample was stirred at 900 rpm at 37° C. in an aggregometer cuvette for up 10 minutes and aggregation was measured as the change in light transmission (as described in section 4.2 below). The ADP concentration that gave>0% and<20% aggregation was used for the subsequent analysis of the interaction of the product with platelet-depleted plasma.
(iii) To test the products, 400 μL of platelet-depleted plasma, with a platelet count of 10-60×10^6/ml, was mixed with 20 μL of test microspheres at 10 mg albumin/ml and ADP at a concentration determined as described above. The sample was mixed at 900 rpm for up to 10 minutes. At appropriate times 5 μl aliquots were removed for flow cytometric analysis as follows.
(iv) For the analysis 5 μl of test sample was added to 50 μ1 Hepes-buffered saline containing an appropriate concentration of a fluorescently-conjugated antibody to an antigen present on all platelets. We used 1 μl of an RPE-conjugated CD42b monoclonal antibody (we used antibody 555473 provided by BD Harlingen). The sample was incubated for 20 minutes at room temperature (typically 20° C. ) then diluted with 0.5 ml formyl saline (0.2% formalin in 0.9% NaCl).
(v) The diluted sample was then analysed by forward and side scatter in a flow cytometer (e.g. Beckman Coulter MCL-XL) using the gate set around the platelet population in the control sample (see 4.1.i), allowing a fixed volume of sample (e.g. 20 μl) to pass through the cytometer. Particles enclosed in the platelet gate were analysed for fluorescence to identify the number of single platelets within the gate. […]

platelets [4] = assay: Platelet aggregation in platelet-depleted plasma by light transmission (PAP-4 aggregometer); type: cell-based, human
Procedure: 4.2 Method for Measuring Aggregation by Light Transmission Using the PAP-4 Platelet Aggregometer
In this system the product was mixed with platelet-depleted plasma in a stirred system at […] and aggregation was measured by a change in light transmission.
(i) 400 μl of platelet-depleted plasma was mixed with 20 μl of blank microspheres at 10 mg albumin/ml.
(ii) ADP was added at concentrations between 1 and 4×10^−5M
(iii) Aggregation was measured over 20 minutes and recorded as the percentage of maximum using autologous plasma to set the value for 100% aggregation.

platelets [5] = details: purified peptide; cited from earlier work
fibrinogen (human) [6] = target: fibrinogen (human) (UniProt P02671); assay: flow cytometry of peptide-linked albumin microspheres incubated with 3 mg fibrinogen per ml, detected with FITC rabbit anti-human fibrinogen
[7] = listed as peptide-coupled microspheres

Sequence of fibrinogen (human) (P02671 20-629 limits assumed, chain 1 of 3): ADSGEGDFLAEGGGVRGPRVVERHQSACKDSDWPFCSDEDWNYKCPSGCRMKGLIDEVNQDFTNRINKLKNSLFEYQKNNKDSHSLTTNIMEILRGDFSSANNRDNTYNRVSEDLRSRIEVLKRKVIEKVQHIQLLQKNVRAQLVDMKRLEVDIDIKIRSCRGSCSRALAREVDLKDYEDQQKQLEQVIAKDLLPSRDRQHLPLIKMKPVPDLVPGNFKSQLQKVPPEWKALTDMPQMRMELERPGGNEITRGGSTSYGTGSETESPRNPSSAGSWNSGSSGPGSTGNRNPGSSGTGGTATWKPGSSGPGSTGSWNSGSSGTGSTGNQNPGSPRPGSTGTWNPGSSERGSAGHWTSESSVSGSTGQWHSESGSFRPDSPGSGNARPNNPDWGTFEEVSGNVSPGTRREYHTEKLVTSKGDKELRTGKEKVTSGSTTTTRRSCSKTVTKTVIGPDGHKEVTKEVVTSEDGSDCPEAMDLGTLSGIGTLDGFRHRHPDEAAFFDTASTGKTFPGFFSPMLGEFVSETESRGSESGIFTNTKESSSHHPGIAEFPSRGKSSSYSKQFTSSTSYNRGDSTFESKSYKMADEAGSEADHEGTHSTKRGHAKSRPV
Sequence of fibrinogen (human) (P02675 31-491 limits assumed, chain 2 of 3, further chain): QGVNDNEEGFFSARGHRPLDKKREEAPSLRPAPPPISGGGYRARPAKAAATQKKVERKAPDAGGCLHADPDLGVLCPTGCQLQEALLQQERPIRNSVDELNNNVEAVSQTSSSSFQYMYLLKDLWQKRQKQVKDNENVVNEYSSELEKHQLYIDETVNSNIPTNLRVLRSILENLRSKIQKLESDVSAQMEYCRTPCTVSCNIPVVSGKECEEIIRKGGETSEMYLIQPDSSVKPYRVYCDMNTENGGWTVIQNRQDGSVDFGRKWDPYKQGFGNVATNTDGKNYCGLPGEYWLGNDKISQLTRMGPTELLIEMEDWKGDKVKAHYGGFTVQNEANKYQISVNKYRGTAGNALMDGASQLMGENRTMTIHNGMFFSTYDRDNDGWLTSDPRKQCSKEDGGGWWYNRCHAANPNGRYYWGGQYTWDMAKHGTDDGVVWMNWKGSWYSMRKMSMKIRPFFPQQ
Sequence of fibrinogen (human) (P02679 other isoform, or with tags, fused parts or gaps limits assumed, chain 3 of 3, further chain): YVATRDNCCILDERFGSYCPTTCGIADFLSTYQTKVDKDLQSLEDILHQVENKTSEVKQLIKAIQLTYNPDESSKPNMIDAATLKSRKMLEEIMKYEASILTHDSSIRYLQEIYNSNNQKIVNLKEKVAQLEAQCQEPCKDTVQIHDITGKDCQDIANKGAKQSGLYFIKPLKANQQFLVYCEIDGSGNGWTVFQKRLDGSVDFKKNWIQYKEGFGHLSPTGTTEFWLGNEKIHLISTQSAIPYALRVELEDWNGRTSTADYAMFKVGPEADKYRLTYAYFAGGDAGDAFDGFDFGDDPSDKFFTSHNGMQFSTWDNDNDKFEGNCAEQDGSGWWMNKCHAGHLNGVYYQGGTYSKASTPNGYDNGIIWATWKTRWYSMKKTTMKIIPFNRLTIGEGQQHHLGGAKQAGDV
T1 sequence (P02671 20-629 partner limits assumed): as the sequence (P02671 20-629 limits assumed, chain 1 of 3) above
T1 sequence (P02675 31-491): as the sequence (P02675 31-491 limits assumed, chain 2 of 3, further chain) above
T1 sequence (P02679 27-437 isoform P02679-2 limits assumed): as the sequence (P02679 other isoform, or with tags, fused parts or gaps limits assumed, chain 3 of 3, further chain) above

Molecule: human albumin microspheres of the reference batch (fibrinogen bound directly to the surface, method of WO 98/17319) (from UniProt P02768 25-609)
- Median fluorescence intensity (arbitrary units (log scale)) (fibrinogen (human) [1]): 22.4
- Percent positive (fibrinogen (human) [1]): 94.7%
- Median fluorescence intensity (arbitrary units (log scale)) (fibrinogen (human) [2]): 22
- Percent positive (fibrinogen (human) [2]): 94%

Molecule: Peptide Gly^n = 3: albumin microspheres with bound peptide GPRPGGGC, incubated with 3 mg fibrinogen
- Percent positive (percentage of microspheres positive for fibrinogen) (fibrinogen): 94%
- Median fluorescence intensity (fibrinogen): 28 arbitrary units (log scale)

Molecule: Peptide Gly^n = 6: albumin microspheres with bound peptide GPRPGGGGGGC, incubated with 3 mg fibrinogen
- Percent positive (percentage of microspheres positive for fibrinogen) (fibrinogen): 95%
- Median fluorescence intensity (fibrinogen): 26 arbitrary units (log scale)

Molecule: Product 2: albumin microspheres with peptide GPRPGGGGGGC bound, without fibrinogen
- Percent positive (percentage of microspheres positive for fibrinogen) (fibrinogen): 13.1%
- Percent positive (percentage of microspheres positive for fibrinogen) (fibrinogen; listed as 0 mg/ml): 0%
- Median fluorescence intensity (fibrinogen): 1.6 arbitrary units (log scale)
- Median fluorescence intensity (fibrinogen; listed as 0 mg/ml): 0 arbitrary units (log scale)
- Percentage aggregation in the absence of thrombin (thrombin): 4.75 ± 4.4%
- Percentage aggregation in the absence of thrombin (thrombin; listed as 0 mg/ml): 4.25 ± 4.93%
- Percentage aggregation in the absence of ADP (platelets [3]): 17.8 ± 3.5%
- Percentage aggregation in the absence of ADP (platelets [3]; listed as 0 mg/ml): 17.9 ± 3.45%
- Percentage aggregation in the absence of ADP (platelets [3]; [7]): 17.8±3.5%
- Percentage aggregation in the presence of ADP (platelets [3]): 57.3 ± 9.3%
- Percentage aggregation in the presence of ADP (platelets [3]; listed as 0 mg/ml): 57.6 ± 7.64%
- Percentage aggregation in the presence of ADP (platelets [3]; [7]): 57.3±9.3%
- Aggregation in the absence of ADP (aggregometry) (platelets [4]): only low levels of aggregation

Molecule: Peptide Gly^n = 0: albumin microspheres with bound peptide GPRPC, incubated with 3 mg fibrinogen
- Percent positive (percentage of microspheres positive for fibrinogen) (fibrinogen): 6%
- Median fluorescence intensity (fibrinogen): 2.4 arbitrary units (log scale)

Molecule: TDVNGDGRHDL [Product B12]
- Effect on platelet aggregation (platelets [5]): caused inhibition of platelet aggregation

B1: peptide GPRPC linked to human albumin microspheres (peptide)
peptide: GPRPC
modifications: also: Cys5 thiol bound to human albumin microspheres (DTNB-activated thiol)
- Median fluorescence intensity (arbitrary units (log scale)) (fibrinogen (human) [6]): 2.4
- Percent positive (fibrinogen (human) [6]): 6%
